The record followed here is patent US20140243255A1.

As a reminder, the Kd is the constant that tells how readily two partners part at equilibrium.

For the assay, the target named is Mtb ClpP1P2 protease complex (one heptameric ClpP1 ring and one heptameric ClpP2 ring) (Mycobacterium tuberculosis) (UniProt P0A527).

The substance Z-Leu-Leu (peptide) had a Kd of 2200 µM.
In the case of Z-Leu-leucinal (peptide), the Kd was 240 µM.
